{"source": "paper PMC5037460", "about": "“The structure of a furin-antibody complex explains non-competitive inhibition by steric exclusion of substrate conformers” (Scientific Reports, 2016)", "binders": {"B1": {"name": "inhibitory camelid antibody Nb14 (VHH)", "VHH": "QVQLQESGGGLVQPGGSLTLSCAASGFTFSSYSMYWVRQAPGKGLEWVSSINRVGSNTDYADSVKGRFTISRDNAKNTLYLQMNSLKSEDTALYYCAVGMYAAPPWRGQGTQVTVSS", "notes": "they are in the deposited structures PDB 5JMO (complex with furin) and PDB 5JMR (free Nb14); also called nanobody Nb14; source: purification in Supplementary Information"}}, "key": {"[1]": {"target": "T1, dec-RVKR-CMK-inhibited human furin (Homo sapiens, covalently inhibited by decanoyl-RVKR-chloromethylketone (dec-RVKR-CMK))", "T1 construct": "furin, human; also called furin:RVKR-CMK; source: purified, complex with Nb14 purified by GPC", "T1 chain": "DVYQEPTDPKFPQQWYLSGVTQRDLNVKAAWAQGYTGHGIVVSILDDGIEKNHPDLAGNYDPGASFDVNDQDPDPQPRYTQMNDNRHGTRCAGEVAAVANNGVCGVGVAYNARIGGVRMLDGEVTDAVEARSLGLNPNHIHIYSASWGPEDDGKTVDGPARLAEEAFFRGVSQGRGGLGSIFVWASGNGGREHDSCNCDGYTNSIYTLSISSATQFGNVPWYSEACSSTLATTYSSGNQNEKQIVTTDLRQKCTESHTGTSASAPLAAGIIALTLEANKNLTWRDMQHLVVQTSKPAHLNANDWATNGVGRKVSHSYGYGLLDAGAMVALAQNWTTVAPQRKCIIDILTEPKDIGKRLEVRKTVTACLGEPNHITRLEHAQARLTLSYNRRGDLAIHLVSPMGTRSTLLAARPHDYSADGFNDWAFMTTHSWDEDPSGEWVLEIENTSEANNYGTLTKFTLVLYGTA", "test": "crystal structure; furin:RVKR-CMK:Nb14 complex (~9 mg/ml in 10 mM Hepes, pH 7.5, 100 mM NaCl, 2 mM CaCl2) crystallised in 0.1 M sodium acetate, pH 5.6, 16-18% PEG 3350; two copies of the complex in the asymmetric unit", "settings": "both partners purified"}, "human furin, wild type": {"target": "T2, human furin, wild type (Homo sapiens)", "T2 construct": "furin, human; also called Furin^WT; source: purified", "T2 chain": "T1 chain", "test": "SEC; analytical gel permeation chromatography, Superdex 200 5/150 GL, 10 mM Hepes, pH 7.5, 100 mM NaCl, 1 mM CaCl2; proteins premixed at equimolar ratio, ~23 μM each; 0.2 ml/min; peak fractions by SDS-PAGE", "settings": "both partners purified"}}}
{"binder": "B1", "values": [{"measurement": "binding result", "setting": "[1]", "value": "binds"}, {"measurement": "binding result", "setting": "human furin, wild type", "value": "binds"}]}
